The labels stand for the following.
B1: F1*; the commonest letter at each place (parent)
chain: GAGACCGCAACTGAAAAGTTGTTATCACTTGTCGTAAGACACTTTGGATGGGTTGAAGTTCTGCACGTAGAAGCAAAAGGC

Here are results for 34 variants from the supplement of paper PMC6755084.

The variants in this data set derive from B1. In words: fraction ligated after 30 min (ligated reads / total reads); higher = more ligase activity. Conditions: with F1*sub RNA substrate (template-directed ligation), 42 °C. The method in brief:
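Ribozyme variants were transcribed with T7 from PCR-amplified oligo-pool templates and gel-purified. Ligated and unligated bands, separated on gel, were reverse transcribed with barcoded primers and sequenced on a MiSeq, with core bases filtered at quality ≥20. Fraction ligated per variant was computed as ligated reads divided by total reads.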
On to GAGACCGCAACTGAAAAGTTGTTATCACTTGTGGTAAGACACTTTGGATTGGTTGAAGTTCTGCACGTAGAAGCAAAAGGC, for which the fraction ligated amounted to 0.545.
Next, GAGACCGCAACTGAAAAGTTGTTATCACTTGTCGTAAGACTCTTTGGATGGGTTGTAGTTCTGCACGTAGAAGCAAAAGGC: 0.792; GAGACCGCAACTGAAAAGTTGTTATCACTTGTCGTAAGACACATTGGAAGGGTTGAAGTTCTGCACGTAGAAGCAAAAGGC: 0.743; GAGACCGCAACTGAAAAGTTGTTATCGCTTGTCGTAAGACACTTTGGCTGGGTTGAAGTTCTGCACGTAGAAGCAAAAGGC: 0.504.
Next, GAGACCGCAACTGAAAAGTTGTTATCACTTGTCCTAAGAAACTTTGGATGGGTTGAAGTTCTGCACGTAGAAGCAAAAGGC: 0.805.
For GAGACCGCAACTGAAAAGTTGTTATCACTTGTCGTAAGACACTTTATATGGGTTGAAGTTCTGCACGTAGAAGCAAAAGGC the value was 0.115.
In the case of GAGACCGCAACTGAAAAGTTGTTCTCACTTGGCGTAAGACACTTTGGATGGGTTGAAGTTCTGCACGTAGAAGCAAAAGGC, the fraction ligated is 0.144.
For GAGACCGCAACTGAAAAGTTGTTATCACTTGTCAGAAGACACTTTGGATGGGTTGAAGTTCTGCACGTAGAAGCAAAAGGC the value was 0.855; for GAGACCGCAACTGAAAAGTTGTTATCACTTGTCGTAAGACACTTTGGATGGGTTCACGTTCTGCACGTAGAAGCAAAAGGC, 0.412; for GAGACCGCAACTGAAAAGTTGTTATCACTTGTCGTAAGACACTTTGGCTGGGTTAAAGTTCTGCACGTAGAAGCAAAAGGC, 0.743.
For GAGACCGCAACTGAAAAGTTGTTATCACTTCTCGTAAGACCCTTTGGATGGGTTGAAGTTCTGCACGTAGAAGCAAAAGGC the value was 0.492.
Next, GAGACCGCAACTGAAAAGTTGTAATCACTTGTCGTAAGACACTTTGGAGGGGTTGAAGTTCTGCACGTAGAAGCAAAAGGC: 0.827; GAGACCGCAACTGAAAAGTTGTTATCACTCCGCGTAAGCGGCTTTGGATGGGTTGAAGTTCTGCACGTAGAAGCAAAAGGC: 0.862; GAGACCGCAACTGAAAAGTTGTTATCACTTGTCGTTAGACGCTTTGGATGGGTTGAAGTTCTGCACGTAGAAGCAAAAGGC: 0.794.
As for GAGACCGCAACTGAAAAGTTGTTATCACCTGTCGTAAGACACTTTGGAGGGGTTGAAGTTCTGCACGTAGAAGCAAAAGGC, the fraction ligated turned out to be 0.66.
For GAGACCGCAACTGAAAAGTTGTTATCAGTTGTCGTAAGACATTTTGGATGGGTTGAAGTTCTGCACGTAGAAGCAAAAGGC the value was 0.815.
For GAGACCGCAACTGAAAAGTTGTTATCACTTGTCGTAAGACACTTAGGATGGGTTGACGTTCTGCACGTAGAAGCAAAAGGC the value was 0.773; for GAGACCGCAACTGAAAAGTTGTTATCACTTGTCGTAAGACACTTAGGATGGGTTGATGTTCTGCACGTAGAAGCAAAAGGC, 0.794; for GAGACCGCAACTGAAAAGTTGTTATCACTTGTCGTAAGACACTTTGGATGGGTTGGCGTTCTGCACGTAGAAGCAAAAGGC, 0.748.
As for GAGACCGCAACTGAAAAGTTGTTATCACTTGTCGCAAGACACTTTGGACGGGTTGAAGTTCTGCACGTAGAAGCAAAAGGC, the fraction ligated came to 0.731.
For GAGACCGCAACTGAAAAGTTGTTAACACTTGTCGTAAGTCACTTTGGATGGGTTGAAGTTCTGCACGTAGAAGCAAAAGGC the value was 0.255.
As for GAGACCGCAACTGAAAAGTTGTGAACACTTGTCGTAAGACACTTTGGATGGGTTGAAGTTCTGCACGTAGAAGCAAAAGGC, the fraction ligated turned out to be 0.78.
Next, GAGACCGCAACTGAAAAGTTGTTAACACTTGTCGTAAGACAGTTTGGATGGGTTGAAGTTCTGCACGTAGAAGCAAAAGGC: 0.553; GAGACCGCAACTGAAAAGTTGTTATCACTTGTCGTAAGAAACTTTGGATGGGTTGATGTTCTGCACGTAGAAGCAAAAGGC: 0.792.
For GAGACCGCAACTGAAAAGTTGTTATCACTTATCTTAAGACACTTTGGATGGGTTGAAGTTCTGCACGTAGAAGCAAAAGGC the value was 0.796; for GAGACCGCAACTGAAAAGTTGTTATCACTTGACGTAAGACACTATGGATGGGTTGAAGTTCTGCACGTAGAAGCAAAAGGC, 0.819; for GAGACCGCAACTGAAAAGTTGTTATCACTTGTTGTAAGACACTTTGGATGGGTTGACGTTCTGCACGTAGAAGCAAAAGGC, 0.841.
With GAGACCGCAACTGAAAAGTTGTTATCACTTGTCGTAAGACCCTTTGGATGGGTTGAGGTTCTGCACGTAGAAGCAAAAGGC, the fraction ligated amounted to 0.773.
For GAGACCGCAACTGAAAAGTTGTTATCACTTGTCGTAAGACACTTTGTATGGGTTGTAGTTCTGCACGTAGAAGCAAAAGGC, the fraction ligated stood at 0.0333.
Next, GAGACCGCAACTGAAAAGTTGTTATCATTTGTCGTAAGACACTTTGGATGGGTTGATGTTCTGCACGTAGAAGCAAAAGGC: 0.817; GAGACCGCAACTGAAAAGTTGTTATCACTTGTCGTAAGACACTCTGTATGGGTTGAAGTTCTGCACGTAGAAGCAAAAGGC: 0.152.
As to GAGACCGCAACTGAAAAGTTGTTATCACTAGTCGTAAGAAACTTTGGATGGGTTGAAGTTCTGCACGTAGAAGCAAAAGGC, the fraction ligated was found to be 0.845.
GAGACCGCAACTGAAAAGTTGTTATCACTTGTCGTACGACACTTGGGATGGGTTGAAGTTCTGCACGTAGAAGCAAAAGGC: the fraction ligated was determined as 0.415.
Next, GAGACCGCAACTGAAAAGTTGTTACCACTTGTCGTAAGACACTATGGATGGGTTGAAGTTCTGCACGTAGAAGCAAAAGGC: 0.788.
